Assay results published in doi:10.1101/2021.04.15.439997 (bioRxiv, 2021).

Target: the molecule itself
Assay: SEC-MALS

B1: Strep-tagged glucose-6-phosphate dehydrogenase (G6PDH) from Synechocystis (enzyme)
chain: not shown
stoichiometry N: 4
